Assay results from patent US20250262210A1 (TRUSTEES OF COLUMBIA UNIVERSITY IN THE CITY OF NEW YORK, published 2025).

Tests used:
Assay in all cases: IP/MS, LZTR1 wild type-FLAG, U87
[1] = target: T1, SEC24D (human, UniProt O94855 1-1032, limits assumed)
T1 sequence (looked up): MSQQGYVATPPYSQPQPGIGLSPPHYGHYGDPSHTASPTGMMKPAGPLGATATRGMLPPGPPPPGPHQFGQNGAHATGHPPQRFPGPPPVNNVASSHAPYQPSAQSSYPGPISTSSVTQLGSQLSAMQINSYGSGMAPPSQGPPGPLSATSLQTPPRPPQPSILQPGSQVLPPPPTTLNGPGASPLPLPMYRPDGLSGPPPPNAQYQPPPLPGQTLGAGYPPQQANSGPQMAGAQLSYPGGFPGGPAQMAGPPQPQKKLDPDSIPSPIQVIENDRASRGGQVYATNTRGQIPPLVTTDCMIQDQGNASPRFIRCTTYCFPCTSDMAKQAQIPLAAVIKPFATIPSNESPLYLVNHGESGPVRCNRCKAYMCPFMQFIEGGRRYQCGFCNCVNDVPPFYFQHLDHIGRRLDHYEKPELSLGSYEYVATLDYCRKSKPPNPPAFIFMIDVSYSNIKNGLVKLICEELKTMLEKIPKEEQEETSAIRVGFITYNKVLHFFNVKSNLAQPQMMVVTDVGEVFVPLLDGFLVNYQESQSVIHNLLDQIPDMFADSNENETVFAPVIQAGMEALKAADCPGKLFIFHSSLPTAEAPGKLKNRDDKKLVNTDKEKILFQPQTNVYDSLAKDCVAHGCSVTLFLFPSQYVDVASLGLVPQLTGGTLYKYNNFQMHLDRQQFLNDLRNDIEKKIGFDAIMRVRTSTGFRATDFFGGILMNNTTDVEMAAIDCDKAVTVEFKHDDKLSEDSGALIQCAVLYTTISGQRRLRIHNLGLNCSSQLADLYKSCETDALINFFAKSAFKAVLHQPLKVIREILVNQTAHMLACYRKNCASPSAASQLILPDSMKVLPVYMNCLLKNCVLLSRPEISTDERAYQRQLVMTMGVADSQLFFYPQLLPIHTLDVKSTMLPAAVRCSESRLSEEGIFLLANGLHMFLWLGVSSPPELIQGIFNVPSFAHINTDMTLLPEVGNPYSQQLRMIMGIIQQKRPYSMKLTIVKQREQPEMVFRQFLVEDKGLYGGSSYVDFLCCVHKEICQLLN
Outline: (§1)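 Extracted peptides in 3% acetonitrile/0.1% formic acid ran on a 50 cm C18 column into an Orbitrap Fusion, with MaxQuant identification and spectral counting.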

[2] = target: T2, PPFIBP1 (human, UniProt Q86W92 1-1011, limits assumed)
T2 sequence (looked up): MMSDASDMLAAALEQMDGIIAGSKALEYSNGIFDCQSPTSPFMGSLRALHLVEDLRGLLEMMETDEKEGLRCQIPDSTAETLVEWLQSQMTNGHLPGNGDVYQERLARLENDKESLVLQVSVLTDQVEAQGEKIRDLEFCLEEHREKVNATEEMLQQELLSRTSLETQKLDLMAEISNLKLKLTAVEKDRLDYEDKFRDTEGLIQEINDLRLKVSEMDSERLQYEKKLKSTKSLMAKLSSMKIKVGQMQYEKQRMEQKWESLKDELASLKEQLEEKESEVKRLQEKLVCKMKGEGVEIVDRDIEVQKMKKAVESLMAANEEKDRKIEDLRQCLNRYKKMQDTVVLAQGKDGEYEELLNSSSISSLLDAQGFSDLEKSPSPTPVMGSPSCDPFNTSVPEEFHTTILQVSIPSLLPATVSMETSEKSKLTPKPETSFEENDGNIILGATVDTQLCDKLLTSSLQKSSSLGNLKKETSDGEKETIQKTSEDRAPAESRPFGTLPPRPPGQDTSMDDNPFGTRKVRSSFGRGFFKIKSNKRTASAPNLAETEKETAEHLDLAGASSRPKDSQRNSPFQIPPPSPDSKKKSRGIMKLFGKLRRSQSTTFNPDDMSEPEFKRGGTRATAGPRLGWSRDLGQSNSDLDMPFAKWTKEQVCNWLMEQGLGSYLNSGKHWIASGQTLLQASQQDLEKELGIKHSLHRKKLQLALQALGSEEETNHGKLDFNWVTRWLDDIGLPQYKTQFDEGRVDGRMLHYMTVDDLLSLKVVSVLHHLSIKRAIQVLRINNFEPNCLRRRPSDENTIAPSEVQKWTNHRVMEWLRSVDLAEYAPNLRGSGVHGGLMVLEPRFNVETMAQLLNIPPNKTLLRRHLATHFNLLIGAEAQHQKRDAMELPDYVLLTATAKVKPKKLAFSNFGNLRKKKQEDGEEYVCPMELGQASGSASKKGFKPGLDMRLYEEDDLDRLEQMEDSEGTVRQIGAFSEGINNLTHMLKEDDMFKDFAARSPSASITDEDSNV
Outline: as §1

[3] = target: KIF1B (human, UniProt O60333 2-1816, limits assumed)
Outline: as §1

[4] = target: BRCA2 (human, UniProt P51587 1-3418)
BRCA2, sequence (P51587 whole entry): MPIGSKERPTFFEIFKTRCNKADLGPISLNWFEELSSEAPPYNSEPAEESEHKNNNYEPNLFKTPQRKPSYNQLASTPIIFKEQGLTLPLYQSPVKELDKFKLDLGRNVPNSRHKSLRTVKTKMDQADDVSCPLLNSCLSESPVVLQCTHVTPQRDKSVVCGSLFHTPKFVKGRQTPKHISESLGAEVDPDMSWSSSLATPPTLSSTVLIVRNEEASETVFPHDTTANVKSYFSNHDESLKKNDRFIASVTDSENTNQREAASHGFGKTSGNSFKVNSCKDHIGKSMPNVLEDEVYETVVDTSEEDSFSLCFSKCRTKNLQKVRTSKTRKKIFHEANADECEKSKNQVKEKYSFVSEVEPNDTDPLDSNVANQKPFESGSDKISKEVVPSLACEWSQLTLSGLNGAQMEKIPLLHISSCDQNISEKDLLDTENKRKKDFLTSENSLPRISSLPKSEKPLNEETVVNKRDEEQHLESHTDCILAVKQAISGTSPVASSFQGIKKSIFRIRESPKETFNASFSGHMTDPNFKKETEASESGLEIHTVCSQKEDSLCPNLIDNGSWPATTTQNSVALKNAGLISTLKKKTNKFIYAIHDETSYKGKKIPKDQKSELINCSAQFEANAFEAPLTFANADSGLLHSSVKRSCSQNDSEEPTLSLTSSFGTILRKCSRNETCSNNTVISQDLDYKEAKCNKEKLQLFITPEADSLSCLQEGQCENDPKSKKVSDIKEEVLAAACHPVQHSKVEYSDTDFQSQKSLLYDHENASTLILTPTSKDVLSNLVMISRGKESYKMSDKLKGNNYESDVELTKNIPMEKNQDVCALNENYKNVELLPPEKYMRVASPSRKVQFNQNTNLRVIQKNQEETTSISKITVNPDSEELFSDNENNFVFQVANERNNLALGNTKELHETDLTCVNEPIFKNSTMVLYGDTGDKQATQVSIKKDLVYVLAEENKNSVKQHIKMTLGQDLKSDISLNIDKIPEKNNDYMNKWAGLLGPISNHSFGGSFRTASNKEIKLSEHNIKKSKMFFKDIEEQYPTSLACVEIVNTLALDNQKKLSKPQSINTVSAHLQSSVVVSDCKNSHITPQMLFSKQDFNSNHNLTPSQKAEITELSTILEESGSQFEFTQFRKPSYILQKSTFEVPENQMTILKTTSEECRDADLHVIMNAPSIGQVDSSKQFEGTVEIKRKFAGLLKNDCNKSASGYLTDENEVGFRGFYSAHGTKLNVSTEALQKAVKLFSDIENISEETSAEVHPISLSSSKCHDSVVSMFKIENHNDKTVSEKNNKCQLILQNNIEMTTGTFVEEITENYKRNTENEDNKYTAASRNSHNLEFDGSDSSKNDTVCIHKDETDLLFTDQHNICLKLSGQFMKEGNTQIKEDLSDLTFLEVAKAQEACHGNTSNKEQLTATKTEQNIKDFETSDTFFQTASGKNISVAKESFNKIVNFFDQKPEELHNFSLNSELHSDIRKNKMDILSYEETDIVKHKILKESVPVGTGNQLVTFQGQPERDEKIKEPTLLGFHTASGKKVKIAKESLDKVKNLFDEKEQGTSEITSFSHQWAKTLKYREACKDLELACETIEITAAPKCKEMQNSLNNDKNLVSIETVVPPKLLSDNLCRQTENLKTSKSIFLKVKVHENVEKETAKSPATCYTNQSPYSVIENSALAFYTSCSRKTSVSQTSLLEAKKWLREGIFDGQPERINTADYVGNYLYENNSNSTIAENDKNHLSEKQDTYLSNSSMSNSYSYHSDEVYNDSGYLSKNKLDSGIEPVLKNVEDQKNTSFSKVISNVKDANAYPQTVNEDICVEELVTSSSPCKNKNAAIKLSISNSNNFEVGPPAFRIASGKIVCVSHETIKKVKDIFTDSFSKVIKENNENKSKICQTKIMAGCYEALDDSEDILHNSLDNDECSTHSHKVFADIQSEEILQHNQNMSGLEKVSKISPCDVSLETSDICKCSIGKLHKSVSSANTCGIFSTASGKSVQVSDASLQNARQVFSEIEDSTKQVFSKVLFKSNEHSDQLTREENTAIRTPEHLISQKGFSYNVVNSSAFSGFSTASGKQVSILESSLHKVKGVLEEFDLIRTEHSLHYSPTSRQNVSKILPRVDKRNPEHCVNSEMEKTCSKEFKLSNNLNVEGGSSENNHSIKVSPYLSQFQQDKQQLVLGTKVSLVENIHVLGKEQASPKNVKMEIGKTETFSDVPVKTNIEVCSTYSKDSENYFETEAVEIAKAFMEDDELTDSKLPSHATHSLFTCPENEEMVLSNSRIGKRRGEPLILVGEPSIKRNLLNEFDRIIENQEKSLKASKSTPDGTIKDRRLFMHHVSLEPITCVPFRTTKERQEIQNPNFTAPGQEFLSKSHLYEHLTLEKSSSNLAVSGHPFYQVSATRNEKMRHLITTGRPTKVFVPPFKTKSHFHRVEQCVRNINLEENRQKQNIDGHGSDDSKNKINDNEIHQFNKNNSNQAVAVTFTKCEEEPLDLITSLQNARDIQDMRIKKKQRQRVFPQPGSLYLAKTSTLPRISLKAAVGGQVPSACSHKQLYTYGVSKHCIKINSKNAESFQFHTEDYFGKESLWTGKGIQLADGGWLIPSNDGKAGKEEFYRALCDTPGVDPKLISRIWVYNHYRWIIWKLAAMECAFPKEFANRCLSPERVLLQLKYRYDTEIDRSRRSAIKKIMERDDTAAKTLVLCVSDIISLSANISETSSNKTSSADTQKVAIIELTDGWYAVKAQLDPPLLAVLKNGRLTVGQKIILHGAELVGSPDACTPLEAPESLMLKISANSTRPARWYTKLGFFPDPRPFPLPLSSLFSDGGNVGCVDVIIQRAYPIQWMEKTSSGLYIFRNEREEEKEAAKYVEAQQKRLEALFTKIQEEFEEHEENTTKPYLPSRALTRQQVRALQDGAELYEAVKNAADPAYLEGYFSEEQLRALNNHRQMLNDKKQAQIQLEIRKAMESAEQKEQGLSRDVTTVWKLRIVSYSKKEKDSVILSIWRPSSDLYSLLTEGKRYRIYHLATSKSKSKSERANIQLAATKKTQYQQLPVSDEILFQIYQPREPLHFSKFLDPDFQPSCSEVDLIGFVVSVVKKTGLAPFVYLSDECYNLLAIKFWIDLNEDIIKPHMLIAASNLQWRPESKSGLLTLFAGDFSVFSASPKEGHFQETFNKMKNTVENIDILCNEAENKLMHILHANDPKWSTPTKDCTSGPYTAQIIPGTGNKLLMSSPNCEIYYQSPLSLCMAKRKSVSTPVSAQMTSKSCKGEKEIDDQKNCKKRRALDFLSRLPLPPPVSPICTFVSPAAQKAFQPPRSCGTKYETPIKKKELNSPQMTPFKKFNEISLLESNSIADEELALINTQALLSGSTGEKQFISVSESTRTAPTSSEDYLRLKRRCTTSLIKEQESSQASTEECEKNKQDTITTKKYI
Outline: as §1

Measured: binding result

B1: LZTR1-FLAG (other, human, UniProt Q8N653 1-840, looked up)
chain: MAGPGSTGGQIGAAALAGGARSKVAPSVDFDHSCSDSVEYLTLNFGPFETVHRWRRLPPCDEFVGARRSKHTVVAYKDAIYVFGGDNGKTMLNDLLRFDVKDCSWCRAFTTGTPPAPRYHHSAVVYGSSMFVFGGYTGDIYSNSNLKNKNDLFEYKFATGQWTEWKIEGRLPVARSAHGATVYSDKLWIFAGYDGNARLNDMWTIGLQDRELTCWEEVAQSGEIPPSCCNFPVAVCRDKMFVFSGQSGAKITNNLFQFEFKDKTWTRIPTEHLLRGSPPPPQRRYGHTMVAFDRHLYVFGGAADNTLPNELHCYDVDFQTWEVVQPSSDSEVGGAEVPERACASEEVPTLTYEERVGFKKSRDVFGLDFGTTSAKQPTQPASELPSGRLFHAAAVISDAMYIFGGTVDNNIRSGEMYRFQFSCYPKCTLHEDYGRLWESRQFCDVEFVLGEKEECVQGHVAIVTARSRWLRRKITQARERLAQKLEQEAAPVPREAPGVAAGGARPPLLHVAIREAEARPFEVLMQFLYTDKIKYPRKGHVEDVLLIMDVYKLALSFQLCRLEQLCRQYIEASVDLQNVLVVCESAARLQLSQLKEHCLNFVVKESHFNQVIMMKEFERLSSPLIVEIVRRKQQPPPRTPLDQPVDIGTSLIQDMKAYLEGAGAEFCDITLLLDGHPRPAHKAILAARSSYFEAMFRSFMPEDGQVNISIGEMVPSRQAFESMLRYIYYGEVNMPPEDSLYLFAAPYYYGFYNNRLQAYCKQNLEMNVTVQNVLQILEAADKTQALDMKRHCLHIIVHQFTKVSKLPTLRSLSQQLLLDIIDSLASHISDKQCAELGADI
notes: Expressed in HEK 293T, HeLa or U87 cells; used as cell lysate; also called LZTR1 wild type-FLAG; LZTR1 WT; not shown: FLAG tag at the C-terminus
binds: all assays above
